Results taken from patent publication US20240228596A1.

Molecular target: SARS-COV-2 Wuhan WT Spike_del18 on VSV-delG pseudotyped particles (SARS-COV-2) (UniProt P0DTC2)
Assay: cell-based or functional assay

Substance | IC50 ug/ml, pseudoneutralization assay [µg/mL]
pX-B003_GS-VHH72-h1-E1D-S56A_(G4S)4_VHH72-h1-E1D-S56A_His8 | 0.361
pX-B002_GS-VHH72-h1-E1D-S56A_(G4S)_VHH72-h1-E1D-S56A_His8 | 0.108
pX-B001_GS-VHH72-h1-E1D-S56A_(G4S)6_VHH72-h1-E1D-S56A_His8 | 0.169
